Experimental data from patent publication US20030215899A1, “Reversible oxidation of protein tyrosine phosphatases” (CEPTYR, Inc., priority 2002, published 2003).
“Also recorded” adds a separate entry of the source.

T1: 70 kDa PTP (SHP-2) (Rattus norvegicus, UniProt P41499)
T1 construct: endogenous in cells; host or cells: Rat-1 fibroblasts
T1 sequence (P41499 1-593): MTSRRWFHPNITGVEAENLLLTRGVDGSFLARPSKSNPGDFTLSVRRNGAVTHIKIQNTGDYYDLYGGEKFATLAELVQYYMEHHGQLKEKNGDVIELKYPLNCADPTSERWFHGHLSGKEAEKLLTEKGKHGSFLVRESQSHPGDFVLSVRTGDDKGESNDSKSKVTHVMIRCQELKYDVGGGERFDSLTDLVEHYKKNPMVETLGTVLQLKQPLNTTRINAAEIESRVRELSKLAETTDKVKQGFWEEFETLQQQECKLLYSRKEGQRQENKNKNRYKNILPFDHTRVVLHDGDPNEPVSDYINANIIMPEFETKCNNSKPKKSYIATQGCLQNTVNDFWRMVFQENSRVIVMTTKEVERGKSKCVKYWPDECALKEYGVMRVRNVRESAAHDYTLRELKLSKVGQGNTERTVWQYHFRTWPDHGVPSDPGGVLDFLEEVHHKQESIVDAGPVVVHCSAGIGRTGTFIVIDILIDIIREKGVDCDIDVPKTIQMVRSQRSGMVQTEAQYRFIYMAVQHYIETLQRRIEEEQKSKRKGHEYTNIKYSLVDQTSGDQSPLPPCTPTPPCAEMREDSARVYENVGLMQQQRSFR

B1: EGF: peptide growth factor (protein, UniProt P01133 23-1207, looked up)
Pro-epidermal growth factor: PQHWSCPEGTLAGNGNSTCVGPAPFLIFSHGNSIFRIDTEGTNYEQLVVDAGVSVIMDFHYNEKRIYWVDLERQLLQRVFLNGSRQERVCNIEKNVSGMAINWINEEVIWSNQQEGIITVTDMKGNNSHILLSALKYPANVAVDPVERFIFWSSEVAGSLYRADLDGVGVKALLETSEKITAVSLDVLDKRLFWIQYNREGSNSLICSCDYDGGSVHISKHPTQHNLFAMSLFGDRIFYSTWKMKTIWIANKHTGKDMVRINLHSSFVPLGELKVVHPLAQPKAEDDTWEPEQKLCKLRKGNCSSTVCGQDLQSHLCMCAEGYALSRDRKYCEDVNECAFWNHGCTLGCKNTPGSYYCTCPVGFVLLPDGKRCHQLVSCPRNVSECSHDCVLTSEGPLCFCPEGSVLERDGKTCSGCSSPDNGGCSQLCVPLSPVSWECDCFPGYDLQLDEKSCAASGPQPFLLFANSQDIRHMHFDGTDYGTLLSQQMGMVYALDHDPVENKIYFAHTALKWIERANMDGSQRERLIEEGVDVPEGLAVDWIGRRFYWTDRGKSLIGRSDLNGKRSKIITKENISQPRGIAVHPMAKRLFWTDTGINPRIESSSLQGLGRLVIASSDLIWPSGITIDFLTDKLYWCDAKQSVIEMANLDGSKRRRLTQNDVGHPFAVAVFEDYVWFSDWAMPSVMRVNKRTGKDRVRLQGSMLKPSSLVVVHPLAKPGADPCLYQNGGCEHICKKRLGTAWCSCREGFMKASDGKTCLALDGHQLLAGGEVDLKNQVTPLDILSKTRVSEDNITESQHMLVAEIMVSDQDDCAPVGCSMYARCISEGEDATCQCLKGFAGDGKLCSDIDECEMGVPVCPPASSKCINTEGGYVCRCSEGYQGDGIHCLDIDECQLGEHSCGENASCTNTEGGYTCMCAGRLSEPGLICPDSTPPPHLREDDHHYSVRNSDSECPLSHDGYCLHDGVCMYIEALDKYACNCVVGYIGERCQYRDLKWWELRHAGHGQQQKVIVVAVCVVVLVMLLLLSLWGAHYYRTQKLLSKNPKNPYEESSRDVRSRRPADTEDGMSSCPQPWFVVIKEHQDLKNGGQPVAGEDGQAADGSMQPTSWRQEPQLCGMGTEQGCWIPVSSDKGSCPQVMERSFHMPSYGTQTLEGGVEKPHSLLSANPLWQQRALDPPHQMELTQ
modifications: Pro-epidermal growth factor
B2: G-CSF: ligand of the G-CSFR/PDGFR chimeric receptors (protein, UniProt P09919 31-207, looked up)
Granulocyte …: TPLGPASSLPQSFLLKCLEQVRKIQGDGAALQEKLVSECATYKLCHPEELVLLGHSLGIPWAPLSSCPSQALQLAGCLSQLHSGLFLYQGLLQALEGISPELGPTLDTLQLDVADFATTIWQQMEELGMAPALQPTQGAMPAFASAFQRRAGGVLVASHLQSFLEVSYRVLRHLAQP

How the values were obtained:
[1] = test system: intracellular ROS in Rat-1 cells; test: ROS-induced DCF fluorescence (microscopy, flow cytometry); type: cell-based; conditions: 20 μM CM-H2DCFDA, growth factor 50 ng/ml, 10 mins
Description: The effects of H2O2 and t-BHP on inactivation of PTPs and activation of MAPK signaling pathways were next compared in a cellular context. Intracellular ROS were measured using 2′,7′-dichlorofluorescein diacetate (H2DCFDA) and 5-(and-6)-chloromethyl-2′,7′-dichlorodihydrofluorescein diacetate (CM-H2DCFDA) (all fluorescent ROS indicators from Molecular Probes, Eugene, Oreg.) either by fluorescence microscopy, using a Zeiss Axiovert 405M inverted microscope equipped with a fluorescence attachment and digital camera, or by cell sorting, using a FACSCalibur System ([…].), according to the manufacturer's recommendations. […] Images of ROS-induced DCF fluorescence are shown at magnification 400× (FIG. 3B upper panel). Cells (1×10^5) that underwent the same treatment as above were harvested and resuspended in Hanks' solution, then immediately subjected to flow cytometric analysis to measure ROS-induced DCF fluorescence. The basal peak indicates background fluorescence, whereas the rightward shifted peak indicates ROS-induced DCF fluorescence (FIG. 3B, lower panels). […]
Rat-1 cells were incubated with 20 μM CM-H2DCFDA in the dark for 20 mins, then exposed to peptide growth factors (50 ng/ml) for an additional 10 mins. Images of ROS-induced DCF fluorescence are shown at 50× magnification. […]

MAPK = test: anti-phospho-MAPK / anti-MAPK immunoblot; type: cell-based, Rat; conditions: peptide growth factors, Rat-1 cells
Description: For immunoprecipitation, cells were rinsed with ice-cold PBS, then lysed in ice-cold 20 mM Hepes (pH 7.5), 1% NP-40, 150 mM NaCl, 10% glycerol, 200 μM […] and protease inhibitors (25 μg/ml of aprotinin and leupeptin). […] The anti-pTyr antibody G104 was described previously (Garton et al., 1997 Oncogene 15, 877-885). Anti-PDGFRββ antibody (Ab-X) was a gift from Dr. Daniel DiMaio at Yale University (Irusta and DiMaio, 1998 EMBO J. 17, 6912-6923). Anti-human G-CSF receptor (G-CSFR) antibody was provided by Dr. Toshio Hirano at Osaka University, Japan (Fukada et al., 1996 Immunity 5, 449-460). Lysate (400 μg) was incubated with 5 μg of antibody conjugated to protein A/G-Sepharose (Amersham Pharmacia, Arlington Heights, Ill.) for 2 hours at 4° C. For immunoblotting, aliquots of total lysates (30 μg per sample) or immunoprecipitates were subjected to SDS-PAGE and transferred to nitrocellulose filters, which were incubated with appropriate primary and secondary antibodies and the specific signals were visualized by the ECL detection system (Amersham Pharmacia).

70 kDa PTP (SHP-2) = molecular target: T1, 70 kDa PTP (SHP-2); test: modified in-gel PTP assay, growth factor stimulated Rat-1 cells; type: cell-based
Text: To determine whether ROS stimulated intracellular tyrosine phosphorylation through the oxidation and inhibition of cellular PTPs, a modified in-gel PTP activity assay was devised, as follows: As substrate, poly (4:1) Glu-Tyr (Sigma) was labeled with [γ-^32P]-ATP using the GST-FER fusion PTK, as described previously (Shen et al., 1998 J. Biol. Chem. 273:6474-81). The labeled substrates were used within three weeks to limit the variation of its specific activity from experiment to experiment. The lysis buffer (25 mM CH3COONa, 1% NP-40, 150 mM NaCl, 10% glycerol, pH 5.5) was degassed at 4° C. for overnight, before catalase and superoxide dismutase (both 100 μg/ml), protease inhibitors and 10 mM iodoacetic acid (IAA) were added. Following stimulation, cells were lysed under anaerobic conditions in an argon chamber. Lysates (25 μg) were processed as described herein and an “in-gel” phosphatase assay (Burridge and Nelson, 1995) was conducted using SDS-PAGE gels containing a radioactively-labeled substrate (1.5×10^6 cpm/20 ml gel solution, approximately 2 μM p-Tyr).
Cells were triggered with the appropriate stimulus and harvested under anaerobic conditions in lysis buffer containing IAA. Those PTPs that had not encountered ROS in the cell became irreversibly inactivated by alkylation of their active site Cys with IAA. However, in contrast, any PTPs in which the active site Cys had been oxidized in response to the stimulus were resistant to alkylation. For the “in-gel” phosphatase assay, a 10% SDS-PAGE gel was cast containing a radioactively-labeled substrate. An aliquot of cell lysate was subjected to SDS-PAGE and proteins in the gel were sequentially denatured, then renatured in the presence of reducing reagents. […] The reaction was then terminated by fixing, staining and destaining the gel. Finally the gel was dried and exposed to film. […]
As described above, treatment of Rat-1 cells with H2O2 led to inactivation of multiple PTPs (FIGS. 2-3). […] Lysates of PDGF-stimulated Rat-1 cells were then analyzed using the modified in-gel PTP activity assay described above. […]

Row | Molecule | production of intracellular ROS [1] | activation of MAPK (MAPK) | oxidation and inhibition of SHP-2 (70 kDa PTP (SHP-2); peptide growth factors, lysis with 10 mM IAA) | oxidation and inactivation of SHP-2 (70 kDa PTP (SHP-2); Rat-1 cells transfected with WT G-CSFR/PDGFR chimeric receptor) | oxidation of SHP-2 (70 kDa PTP (SHP-2); Rat-1 cells transfected with Y1009F mutant G-CSFR/PDGFR chimeric receptor)
1 | B1 | ROS production was not detected | activated MAPK to a similar extent | not following exposure of these cells to EGF or FGF; also recorded: not by EGF or FGF | – | –
2 | B2 | – | – | – | rapid oxidation and inactivation of SHP-2 | did not induce oxidation of SHP-2
